Assay results from patent US20080152653A1.

Biological target: mouse α4 integrin (mouse) (UniProt Q00651)
Experiment: cell-based or functional assay

Chain of UniProt Q00651 (Q00651 41-1039, form in doubt, chain 1 of 2): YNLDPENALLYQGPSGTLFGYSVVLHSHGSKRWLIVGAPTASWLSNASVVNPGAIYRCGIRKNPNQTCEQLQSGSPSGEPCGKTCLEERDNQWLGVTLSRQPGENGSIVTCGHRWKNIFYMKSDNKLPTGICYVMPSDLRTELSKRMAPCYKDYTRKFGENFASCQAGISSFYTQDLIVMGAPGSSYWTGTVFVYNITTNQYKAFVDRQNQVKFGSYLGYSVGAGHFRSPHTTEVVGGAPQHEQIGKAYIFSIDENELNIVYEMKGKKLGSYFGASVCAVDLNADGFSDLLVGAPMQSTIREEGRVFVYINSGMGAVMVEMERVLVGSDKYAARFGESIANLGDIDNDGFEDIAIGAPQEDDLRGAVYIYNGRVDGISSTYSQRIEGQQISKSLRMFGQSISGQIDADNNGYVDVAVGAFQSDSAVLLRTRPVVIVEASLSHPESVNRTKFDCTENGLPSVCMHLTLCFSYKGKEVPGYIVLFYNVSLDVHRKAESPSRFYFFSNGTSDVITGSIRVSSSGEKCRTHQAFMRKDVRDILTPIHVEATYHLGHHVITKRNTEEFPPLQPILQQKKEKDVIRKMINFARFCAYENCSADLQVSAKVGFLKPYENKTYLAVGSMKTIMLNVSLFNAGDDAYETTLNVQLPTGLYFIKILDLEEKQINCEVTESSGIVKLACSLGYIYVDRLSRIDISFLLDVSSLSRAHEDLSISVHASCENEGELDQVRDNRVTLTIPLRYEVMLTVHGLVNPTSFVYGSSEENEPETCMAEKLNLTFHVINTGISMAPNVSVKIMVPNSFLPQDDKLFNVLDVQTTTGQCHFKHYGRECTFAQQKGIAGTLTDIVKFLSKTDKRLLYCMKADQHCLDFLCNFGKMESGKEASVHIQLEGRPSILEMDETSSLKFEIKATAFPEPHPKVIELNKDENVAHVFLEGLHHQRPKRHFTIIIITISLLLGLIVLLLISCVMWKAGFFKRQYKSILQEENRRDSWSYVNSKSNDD
Chain of UniProt Q00651 (chain, as listed by the source, form in doubt, chain 2 of 2): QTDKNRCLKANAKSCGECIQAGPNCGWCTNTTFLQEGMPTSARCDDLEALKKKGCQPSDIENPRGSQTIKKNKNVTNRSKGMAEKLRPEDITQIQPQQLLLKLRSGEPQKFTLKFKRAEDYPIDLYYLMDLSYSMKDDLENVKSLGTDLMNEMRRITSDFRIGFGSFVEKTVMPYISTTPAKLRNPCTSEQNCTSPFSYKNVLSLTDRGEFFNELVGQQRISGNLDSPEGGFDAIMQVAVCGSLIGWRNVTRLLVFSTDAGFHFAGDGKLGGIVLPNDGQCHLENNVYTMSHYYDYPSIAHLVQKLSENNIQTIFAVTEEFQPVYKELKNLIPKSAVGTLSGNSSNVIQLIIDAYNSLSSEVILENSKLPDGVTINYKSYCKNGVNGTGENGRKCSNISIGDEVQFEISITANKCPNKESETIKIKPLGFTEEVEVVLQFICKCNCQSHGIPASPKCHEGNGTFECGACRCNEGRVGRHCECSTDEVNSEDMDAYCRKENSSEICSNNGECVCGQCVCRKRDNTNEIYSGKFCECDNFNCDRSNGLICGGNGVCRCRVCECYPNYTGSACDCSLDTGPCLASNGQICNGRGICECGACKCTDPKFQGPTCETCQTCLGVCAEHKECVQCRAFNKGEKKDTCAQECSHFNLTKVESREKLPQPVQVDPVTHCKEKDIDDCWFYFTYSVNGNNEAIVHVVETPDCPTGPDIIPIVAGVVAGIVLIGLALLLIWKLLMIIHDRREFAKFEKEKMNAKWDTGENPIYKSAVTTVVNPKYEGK

inhibition of growth of B16-BL6 cells (Cell Counting Kit 8, O.D. 450), 10 µg/ml antibody: 20%
Substance: anti-α4 integrin antibody (clone R1-2) (Pharmingen)
